Laboratory results reported in patent US20170058005A1 (priority 2014, published 2017).
Entries after “also recorded” stand apart in the source; their conditions may differ.

Assays:
[1] = tested on: HLA-DR molecules; format: binding, human
[2] = target: DRB1*1501 (DR15) (Homo sapiens, UniProt P01903+P01911); format: binding
[3] = target: DRB1*0301 (DR3) (Homo sapiens, UniProt P01903+P01911, A100K/A102G/A103R/A169T/F55Y/I96L/K41T/L162R/M171V/P40S/Q125H/Q178H/Q39Y/R42S/S66N/T106N/T262R/W38E/Y61H); format: binding
[4] = target: DRB1*1101 (DR11) (Homo sapiens, UniProt P01903+P01911, A100R/A169T/A87E/I96F/K41T/L162R/M171V/P40S/Q125H/Q178H/Q39Y/Q99D/R42S/S66Y/T262R/V115G/W38E); format: binding
[5] = tested on: CD4^+ T cells of HLA class II transgenic mice; format: cell-based
[6] = target: DRB1*0701 (DR7) (Homo sapiens, UniProt P01903+P01911, A100R/A102G/A103Q/D57E/D86V/E43K/F76Y/K127E/L162R/M171V/P40G/Q125H/Q99D/R33Q/R42Y/R54Q/S133A/S66F/T210M/V115G/Y107V/Y59L/Y89S); format: binding
[7] = target: DRB1*0401 (DR4) (Homo sapiens, UniProt P01903+P01911, A100K/A169T/F76Y/I96L/K127E/L162R/M171V/N62H/P40V/Q125Y/R42H/S133A/S149N/S66Y/V115G/V209L/W38E); format: binding
[8] = target: DRB1*1301 (DR13) (Homo sapiens, UniProt P01903+P01911, A100E/A169T/K41T/L162R/M171V/P40S/Q125H/Q178H/Q39Y/Q99D/R42S/S66N/T262R/W38E/Y61H); format: binding
[9] = target: DRB1*0101 (DR1) (Homo sapiens, UniProt P01903+P01911, A100R/D57E/F55L/F60I/F76Y/I96L/L162R/M171V/P40L/Q125E/R42F/V115G/Y59C); format: binding

Sequence: EAQLNINQEWNKALGLPKYT
- Binding across all HLA-DR alleles assayed [1]: strong to moderate binding across all seven HLA-DR alleles
- Relative binding affinity of peptide to HLA-DR molecules, DR15 [2]: 1
- Relative binding affinity of peptide to HLA-DR molecules, DR3 [3]: 173
- Relative binding affinity of peptide to HLA-DR molecules, DR11 [4]: 100
- CD4 T cell response in LF immunized HLA transgenics [5]: DQB1*0302 restricted
- HLA-restriction based on CD4 T cell response class II HLA transgenics after priming with LF [5]: DR15, DQ8
- Relative binding affinity of peptide to HLA-DR molecules, DR7 [6]: 68
- Relative binding affinity of peptide to HLA-DR molecules, DR4 [7]: 43
- Relative binding affinity of peptide to HLA-DR molecules, DR13 [8]: 17
- Relative binding affinity of peptide to HLA-DR molecules, DR1 [9]: 104

Sequence: EQYTHQDEIYEQVHSKGLYV
- Binding across all HLA-DR alleles assayed [1]: strong to moderate binding across all seven HLA-DR alleles
- Relative binding affinity of peptide to HLA-DR molecules, DR15 [2]: 13
- Relative binding affinity of peptide to HLA-DR molecules, DR3 [3]: 245
- Relative binding affinity of peptide to HLA-DR molecules, DR11 [4]: 35
- CD4 T cell response in LF immunized HLA transgenics [5]: immunodominant epitope in both HLA-DR1 and HLA-DR15 transgenics
- HLA-restriction based on CD4 T cell response class II HLA transgenics after priming with LF [5]: DRI
- Relative binding affinity of peptide to HLA-DR molecules, DR7 [6]: 0
- Relative binding affinity of peptide to HLA-DR molecules, DR4 [7]: 237
- Relative binding affinity of peptide to HLA-DR molecules, DR13 [8]: 15
- Relative binding affinity of peptide to HLA-DR molecules, DR1 [9]: 1

Sequence: EYIRIDAKVVPKSKIDTKIQ
- Binding across all HLA-DR alleles assayed [1]: strong to moderate binding across all seven HLA-DR alleles
- Relative binding affinity of peptide to HLA-DR molecules, DR15 [2]: 156
- Relative binding affinity of peptide to HLA-DR molecules, DR3 [3]: 1
- Relative binding affinity of peptide to HLA-DR molecules, DR11 [4]: 21
- CD4 T cell response in LF immunized HLA transgenics [5]: elicited a T cell response in a single HLA transgenic strain
- HLA-restriction based on CD4 T cell response class II HLA transgenics after priming with LF [5]: DRI
- Relative binding affinity of peptide to HLA-DR molecules, DR7 [6]: 12
- Relative binding affinity of peptide to HLA-DR molecules, DR4 [7]: 15
- Relative binding affinity of peptide to HLA-DR molecules, DR13 [8]: 24
- Relative binding affinity of peptide to HLA-DR molecules, DR1 [9]: 3

Sequence: HQSIGSTLYNKIYLYENMNI
- Binding across all HLA-DR alleles assayed [1]: strong to moderate binding across all seven HLA-DR alleles
- Relative binding affinity of peptide to HLA-DR molecules, DR15 [2]: 0.02
- Strong relative binding affinity of peptide to HLA-DR molecules, DR15 [2]: + (key: +: Strong binding affinity was defined in this study as a relative activity <10)
- Relative binding affinity of peptide to HLA-DR molecules, DR3 [3]: 1
- Strong relative binding affinity of peptide to HLA-DR molecules, DR3 [3]: + (key: +: Strong binding affinity was defined in this study as a relative activity <10)
- Relative binding affinity of peptide to HLA-DR molecules, DR11 [4]: 44
- CD4 T cell response in LF immunized HLA transgenics [5]: recognised by all LF immunized HLA transgenics; also recorded: immunogenic in all three HLA-DR transgenic strains
- HLA-restriction based on CD4 T cell response class II HLA transgenics after priming with LF [5]: DR1, DR4, DR15,; also recorded: DQ8, DQ6
- Relative binding affinity of peptide to HLA-DR molecules, DR7 [6]: 3
- Strong relative binding affinity of peptide to HLA-DR molecules, DR7 [6]: + (key: +: Strong binding affinity was defined in this study as a relative activity <10)
- Relative binding affinity of peptide to HLA-DR molecules, DR4 [7]: 55
- Relative binding affinity of peptide to HLA-DR molecules, DR13 [8]: 5
- Strong relative binding affinity of peptide to HLA-DR molecules, DR13 [8]: + (key: +: Strong binding affinity was defined in this study as a relative activity <10)
- Relative binding affinity of peptide to HLA-DR molecules, DR1 [9]: 115

Sequence: LENGKLILQRNIGLEIKDVQI
- Binding to HLA-DR1, DR4 and DR15 [1]: strong binders to all three HLA-DR alleles
- Relative binding affinity of peptide to HLA-DR molecules, DR15 [2]: 0.04
- Strong relative binding affinity of peptide to HLA-DR molecules, DR15 [2]: + (key: +: Strong binding affinity was defined in this study as a relative activity <10)
- Relative binding affinity of peptide to HLA-DR molecules, DR3 [3]: 4
- Strong relative binding affinity of peptide to HLA-DR molecules, DR3 [3]: + (key: +: Strong binding affinity was defined in this study as a relative activity <10)
- Relative binding affinity of peptide to HLA-DR molecules, DR11 [4]: 3
- Strong relative binding affinity of peptide to HLA-DR molecules, DR11 [4]: + (key: +: Strong binding affinity was defined in this study as a relative activity <10)
- CD4 T cell response in LF immunized HLA transgenics [5]: identified in HLA-DR1, HLA-DR4 and HLA-DR15 transgenic lines; also recorded: immunogenic in all three HLA-DR transgenic strains
- HLA-restriction based on CD4 T cell response class II HLA transgenics after priming with LF [5]: DR1, DR4, DR15
- Relative binding affinity of peptide to HLA-DR molecules, DR7 [6]: 1
- Strong relative binding affinity of peptide to HLA-DR molecules, DR7 [6]: + (key: +: Strong binding affinity was defined in this study as a relative activity <10)
- Relative binding affinity of peptide to HLA-DR molecules, DR4 [7]: 7
- Strong relative binding affinity of peptide to HLA-DR molecules, DR4 [7]: + (key: +: Strong binding affinity was defined in this study as a relative activity <10)
- Relative binding affinity of peptide to HLA-DR molecules, DR13 [8]: 9
- Strong relative binding affinity of peptide to HLA-DR molecules, DR13 [8]: + (key: +: Strong binding affinity was defined in this study as a relative activity <10)
- Relative binding affinity of peptide to HLA-DR molecules, DR1 [9]: 0
- Strong relative binding affinity of peptide to HLA-DR molecules, DR1 [9]: + (key: +: Strong binding affinity was defined in this study as a relative activity <10)

Sequence: NKALGLPKYTKLITFNVHNR
- Binding across all HLA-DR alleles assayed [1]: strong to moderate binding across all seven HLA-DR alleles
- Relative binding affinity of peptide to HLA-DR molecules, DR15 [2]: 3
- Relative binding affinity of peptide to HLA-DR molecules, DR3 [3]: 250
- Relative binding affinity of peptide to HLA-DR molecules, DR11 [4]: 2
- HLA-restriction based on CD4 T cell response class II HLA transgenics after priming with LF [5]: DR1
- Relative binding affinity of peptide to HLA-DR molecules, DR7 [6]: 4
- Relative binding affinity of peptide to HLA-DR molecules, DR4 [7]: 10
- Relative binding affinity of peptide to HLA-DR molecules, DR13 [8]: 19
- Relative binding affinity of peptide to HLA-DR molecules, DR1 [9]: 0

Sequence: PESRSILLHGPSKGVELRND
- Binding across all HLA-DR alleles assayed [1]: strong to moderate binding across all seven HLA-DR alleles
- Relative binding affinity of peptide to HLA-DR molecules, DR15 [2]: 17
- Relative binding affinity of peptide to HLA-DR molecules, DR3 [3]: 354
- Relative binding affinity of peptide to HLA-DR molecules, DR11 [4]: 120
- CD4 T cell response in LF immunized HLA transgenics [5]: elicited a T cell response in a single HLA transgenic strain; also recorded: immunodominant epitopes in HLA-DR15 transgenics
- HLA-restriction based on CD4 T cell response class II HLA transgenics after priming with LF [5]: DR15
- Relative binding affinity of peptide to HLA-DR molecules, DR7 [6]: 51
- Relative binding affinity of peptide to HLA-DR molecules, DR4 [7]: 22
- Relative binding affinity of peptide to HLA-DR molecules, DR13 [8]: 21
- Relative binding affinity of peptide to HLA-DR molecules, DR1 [9]: 7

Sequence: QHRDVLQLYAPEAFNYMDKF
- Binding across all HLA-DR alleles assayed [1]: strong to moderate binding across all seven HLA-DR alleles
- Relative binding affinity of peptide to HLA-DR molecules, DR15 [2]: 0.3
- Relative binding affinity of peptide to HLA-DR molecules, DR3 [3]: 3
- Relative binding affinity of peptide to HLA-DR molecules, DR11 [4]: 5
- HLA-restriction based on CD4 T cell response class II HLA transgenics after priming with LF [5]: DR1, DQ8
- Relative binding affinity of peptide to HLA-DR molecules, DR7 [6]: 83
- Relative binding affinity of peptide to HLA-DR molecules, DR4 [7]: 100
- Relative binding affinity of peptide to HLA-DR molecules, DR13 [8]: 267
- Relative binding affinity of peptide to HLA-DR molecules, DR1 [9]: 146

Sequence: QNSNEVQEVFAKAFAYYIEP
- Binding across all HLA-DR alleles assayed [1]: strong to moderate binding across all seven HLA-DR alleles
- Relative binding affinity of peptide to HLA-DR molecules, DR15 [2]: 1
- Relative binding affinity of peptide to HLA-DR molecules, DR3 [3]: 173
- Relative binding affinity of peptide to HLA-DR molecules, DR11 [4]: 2
- HLA-restriction based on CD4 T cell response class II HLA transgenics after priming with LF [5]: DR1
- Relative binding affinity of peptide to HLA-DR molecules, DR7 [6]: 0.4
- Relative binding affinity of peptide to HLA-DR molecules, DR4 [7]: 137
- Relative binding affinity of peptide to HLA-DR molecules, DR13 [8]: 327
- Relative binding affinity of peptide to HLA-DR molecules, DR1 [9]: 0.1

Sequence: QSDLIKKVTNYLVDGNGRFV
- Binding across all HLA-DR alleles assayed [1]: strong to moderate binding across all seven HLA-DR alleles
- Relative binding affinity of peptide to HLA-DR molecules, DR15 [2]: 0.2
- Relative binding affinity of peptide to HLA-DR molecules, DR3 [3]: 26
- Relative binding affinity of peptide to HLA-DR molecules, DR11 [4]: 139
- HLA-restriction based on CD4 T cell response class II HLA transgenics after priming with LF [5]: DR15
- Relative binding affinity of peptide to HLA-DR molecules, DR7 [6]: 4
- Relative binding affinity of peptide to HLA-DR molecules, DR4 [7]: 15
- Relative binding affinity of peptide to HLA-DR molecules, DR13 [8]: 38
- Relative binding affinity of peptide to HLA-DR molecules, DR1 [9]: 12

Sequence: SDVLEMYKAIGGKIYIVDGD
- Binding across all HLA-DR alleles assayed [1]: strong to moderate binding across all seven HLA-DR alleles
- Relative binding affinity of peptide to HLA-DR molecules, DR15 [2]: 2
- Relative binding affinity of peptide to HLA-DR molecules, DR3 [3]: >76
- Relative binding affinity of peptide to HLA-DR molecules, DR11 [4]: 4
- CD4 T cell response in LF immunized HLA transgenics [5]: HLA-DQ8 specific response
- HLA-restriction based on CD4 T cell response class II HLA transgenics after priming with LF [5]: DQ8
- Relative binding affinity of peptide to HLA-DR molecules, DR7 [6]: 1
- Relative binding affinity of peptide to HLA-DR molecules, DR4 [7]: 305
- Relative binding affinity of peptide to HLA-DR molecules, DR13 [8]: 123
- Relative binding affinity of peptide to HLA-DR molecules, DR1 [9]: 5

Sequence: VENTEKALNVYYEIGKILSR
- Binding across all HLA-DR alleles assayed [1]: strong to moderate binding across all seven HLA-DR alleles
- Relative binding affinity of peptide to HLA-DR molecules, DR15 [2]: 0.2
- Relative binding affinity of peptide to HLA-DR molecules, DR3 [3]: 418
- Relative binding affinity of peptide to HLA-DR molecules, DR11 [4]: 0.03
- HLA-restriction based on CD4 T cell response class II HLA transgenics after priming with LF [5]: DR1
- Relative binding affinity of peptide to HLA-DR molecules, DR7 [6]: 36
- Relative binding affinity of peptide to HLA-DR molecules, DR4 [7]: 81
- Relative binding affinity of peptide to HLA-DR molecules, DR13 [8]: 71
- Relative binding affinity of peptide to HLA-DR molecules, DR1 [9]: 1
